Assay results reported in the supplement of paper PMC12667976.
± gives the standard error.

B1: library; numbered along this chain (parent)
chain: MATDAALRRLLRLHRTEIAVAVDSAFPLLHALADHDVVPEDKFQETLHLKEKEGCPQAFHALLSWLLTQDSTAILDFWRVLFKDYNLERYGRLQPILDSFPKDVDLSQPRKGRKPPAVPKALVPPPRLPTKRKASEEARAAAPAALTPRGTASPGSQLKAKPPKKPESSAEQQRLPLGNGIQTMSASVQRAVAMSSGDVPGARGAVEGILIQQVFESGGSKKCIQVGGEFYTPSKFEDSGSGKNKARSSSGPKPLVRAKGAQGAAPGGGEARLGQQGSVPAPLALPSDPQLHQKNEDECAVCRDGGELICCDGCPRAFHLACLSPPLREIPSGTWRCSSCLQATVQEVQPRAEEPRPQEPPVETPLPPGLRSAGEEVRGPPGEPLAGMDTTLVYKHLPAPPSAAPLPGLDSSALHPLLCVGPEGQQNLAPGARCGVCGDGTDVLRCTHCAAAFHWRCHFPAGTSRPGTGLRCRSCSGDVTPAPVEGVLAPSPARLAPGPAKDDTASHEPALHRDDLESLLSEHTFDGILQWAIQSMARPAAPFPS

Variants of: B1
Assay: AIRE transcriptional activation functional score (insulin promoter-GFP; nonsense median 0, synonymous median 1) (normalised score); higher = higher AIRE activity (more reporter activation)
Conditions: with insulin promoter-GFP reporter in HEK293
Description: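 Deep mutational scan of full-length human AIRE (codon-optimized cDNA, DT-POPCode NNN libraries over three regions) integrated at a Bxb1 landing pad in HEK293 cells carrying an insulin core promoter-GFP reporter at a Flp-In site. Cells were sorted for the top 10% GFP about 14 days after transfection. Variant frequency log-ratios (select vs non-select, TileSeq) were rescaled so that the nonsense median is 0 and the synonymous median is 1, then averaged over biological replicates.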

AIRE transcriptional activation functional score of substitutions, site by site:
V80: R -0.324 ± 0.6 | M 0.629 ± 0.25 | C -0.468 ± 0.21 | Y 0.606 ± 0.068 | N -6.41 ± 1 | H -0.971 ± 1.8 | G 0.653 ± 0.33 | I 1.57 ± 0.32 | F 0.527 ± 0.47 | S -0.226 ± 0.18 | A -0.0867 ± 0.36 | E -0.149 ± 0.14 | L 0.613 ± 1.2
Y85: K -1.13 ± 0.22 | Q -2.11 ± 0.086 | N -0.66 ± 0.27 | S 0.113 ± 0.28 | C 0.367 ± 0.2 | I 0.794 ± 0.18 | F 0.722 ± 0.33 | V 0.302 ± 0.21 | R -0.639 ± 0.52 | L 0.211 ± 0.76 | E -2.83 ± 0.47 | T 0.418 ± 0.14 | G -1.95 ± 0.17 | W -1.85 ± 0.26 | P -0.276 ± 0.62 | H -0.286 ± 0.36 | D 0.0634 ± 0.032
W78: T 0.642 ± 0.21 | K 0.0822 ± 0.16 | I 0.15 ± 0.38 | P 0.554 ± 0.3 | H 0.363 ± 0.52 | V -0.0156 ± 0.41 | Y 0.346 ± 0.1 | R -0.0677 ± 0.38 | C 0.126 ± 0.12 | N -0.791 ± 0.45 | D 0.137 ± 0.41 | M 0.308 ± 0.063 | G 0.214 ± 0.16 | L 0.134 ± 0.35 | F 0.409 ± 0.39 | A 0.0338 ± 0.39 | Q -2.24 ± 0.88 | S 0.301 ± 0.46 | E 0.582 ± 0.16
F77: P -0.416 ± 0.52 | W -0.255 ± 0.2 | S -0.182 ± 0.39 | Y 0.195 ± 0.18 | R -0.0859 ± 0.37 | Q -0.44 ± 0.62 | T 0.0954 ± 0.74 | V 0.192 ± 0.17
L81: D 0.439 ± 0.029 | C 0.822 ± 0.12 | S 0.123 ± 0.79 | V -0.437 ± 0.64 | H -1.4 ± 0.2 | Y 0.0857 ± 0.077 | W 0.0861 ± 0.077 | A -0.165 ± 0.28 | P 0.303 ± 0.071 | K -1.81 ± 0.23 | R -0.201 ± 0.48 | F 0.331 ± 0.34 | N 1.87 ± 0.082 | G -0.169 ± 0.42 | M -0.00473 ± 0.12 | I 0.143 ± 1.1 | T 0.331 ± 0.22 | E 0.209 ± 0.3
R79: F 0.705 ± 0.11 | G 0.275 ± 0.28 | P -0.266 ± 0.58 | C 0.278 ± 0.2 | Q 0.112 ± 0.35 | H 1.25 ± 0.16 | D 0.209 ± 0.067 | T -2.81 ± 0.52
